# Measured values as given in the supplement of paper PMC9170038.
# Test system: MS2 coat protein
# Experiment: apparent KD of MS2 coat protein; designed switch direction (-1 OFF switch, 1 ON switch): -1; higher = weaker reporter binding
# In short: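 An oligonucleotide input, 200 uM small-molecule ligand, or no input was present during titration of SNAP-549-labelled MS2 coat protein, which was doubled from 0.7 or 1.5 nM to 3 µM. Designed RNA switches had been transcribed on Illumina chips by stalled E. coli RNA polymerase. Apparent KD per design is the median over clusters of curves fitted to normalised cluster fluorescence.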
# [1] = Eterna round: R95, input ligand: microRNA oligo, concentration not stated
# [2] = input ligand: microRNA oligo, concentration not stated
# [3] = Eterna round: R95, input ligand: FMN 200 uM
# [4] = Eterna round: R95, input ligand: none
Sequence,apparent KD of MS2 coat protein (input ligand: FMN 200 uM),apparent KD of MS2 coat protein [2],apparent KD of MS2 coat protein (input ligand: none),other results
AAUCCACAUGAGGAUCACCCAUGUCAGGAUAUCGCGCGCGCGUUUUCGGUCUCGCGCGCGAGAAGGGACGGCUG (puzzle: Exclusion 1),,,,apparent KD of MS2 coat protein [1]: 22 nM
AAUCCACAUGAGGAUCACCCAUGUCAGGAUAUCGCGCGCGCGUUUUCGGUCUUUCGCGCGAGAAGGGACGACUG (puzzle: Exclusion 1),,,,apparent KD of MS2 coat protein [1]: 14.1 nM
"AAUGAUUGACGAGGAUAUUGUGGUAAAACACGACGAGAAGGCGUAUGUCACAUGAGGAUCACCCAUGUGAGCUUUGUGGAUAUA [Ex NG1 #71] (Eterna round: R96, puzzle: Exclusion NG 1)",31.4 nM,23.4 nM,35.5 nM,
AAUGUUGAUGUGAGGAUAUACAUAGUUUGACCGUAGUAGAAGGCACAUGAGGAUCACCCAUGUAGAUGUUUGGU [JR_BME4_Sub004] (puzzle: Brourd's mod of Exclusion 4),,,,apparent KD of MS2 coat protein [1]: 12.5 nM
"AAUUAACAUGUAGGAUAUCUGCACGUGUAGUGCAGAGAAGGACAUGAGGAUCACCCAUGUAUAGCGACUUCGGUCGCAAUAAUU [ENG1/2-B3] (Eterna round: R96, puzzle: Exclusion NG 1)",313 nM,119 nM,140 nM,
"AAUUAGUAUGUGAGGAUAUUGAUGUAAUGACGGUUUAAGAAGGCACAUGAGGAUCACCCAUGUAGGUGCUCACG [JR_BMEx4_Sub007] (Eterna round: R97, puzzle: Brourd's mod of Exclusion 4)",380 nM,,70.4 nM,
"AAUUAGUAUGUGAGGAUAUUGAUGUAAUGAUGGUUUAAGAAGGCACAUGAGGAUCACCCAUGUAGGAAAUCACG [JR_BMEx4_Sub006] (Eterna round: R97, puzzle: Brourd's mod of Exclusion 4)",37.8 nM,,29 nM,
"AAUUAUUAUUGAGGAUAUCGUAUUGAAACAAUACGAGAAGGCGGAAUAAACAUGAGGAUCACCCAUGUGAGCCUGAUGCUUGUG [Ex NG1 #42] (Eterna round: R96, puzzle: Exclusion NG 1)",,13.4 nM,,
AAUUCACAUGAGGAUCACCCAUGUCAGGAUAUGGUUUCACGUGUUUCGGUGCUUGAGGCCAGAAGGGACAGCUA (puzzle: Exclusion 1),,,,apparent KD of MS2 coat protein [1]: 62.4 nM
AAUUCACAUGAGGAUCACCCAUGUCAGGAUAUGGUUUCACGUUUUUCUUUUCUUGAGGCCAGAAGGGACAGCUA (puzzle: Exclusion 1),,,,apparent KD of MS2 coat protein [1]: 60.1 nM
"AAUUCGGCAGGAUAUACAUGAGGAUCACCCAUGUAAAUUUUUCGUUUAACUUGAAUGUGUAGAAGGGCCAUUAA [Ex3 #63] (Eterna round: R97, puzzle: Exclusion 3)",27.6 nM,,28.8 nM,
"AAUUGACGCCAAAUAUACAACAUGAGGAUCACCCAUGUACCCUAGGUACGCUCGCAGGCAAGCUUUGCUCGUCCACA [Eternabot (L1) Solution 33] (Eterna round: R97, puzzle: Sensor, turn-off variant 1)",40.2 nM,,47.9 nM,
"AAUUUCAUUGUGAGGAUAUGCCCAAAUAAAAGCGGGCAGAAGGCACAUGAGGAUCACCCAUGUCCUGCGGUUAU [salish99_bmx4_r4_152] (Eterna round: R97, puzzle: Brourd's mod of Exclusion 4)",471 nM,,37.5 nM,
"ACAAGAUCGGAAGGAUAUUGUACAUGAGGAUCACCCAUGUAAUAAAUGAGGAUCACGGAUGUAGUCAAGAAGGUCCGGAUAAGA [Ostracism 3 - Jieux - Exclusion NG 2] (Eterna round: R96, puzzle: Exclusion NG 2)",36.9 nM,41.2 nM,43.8 nM,
"ACAAGCUUAAAAAUCCUAAACAUGAGGAUCACCCAUGUUCGUCUUAUAAAAAUAAAAAUAAAAAAUAAAAAAUAAAA [Sensor V2: 70] (Eterna round: R96, puzzle: Sensor v2, turn-off variant)",49.1 nM,228 nM,51.9 nM,
"ACAAGCUUAAUCAGUAUGAACAUGAGGAUCACCCAUGUAAAAGGGAAGACAAUUGGGUUAUUUAAAGCUCGUCUUAU [JR_STOV1_Sub016] (Eterna round: R97, puzzle: Sensor, turn-off variant 1)",57.6 nM,,67.2 nM,

Sequence,apparent KD of MS2 coat protein (input ligand: FMN 200 uM),apparent KD of MS2 coat protein [2],apparent KD of MS2 coat protein (input ligand: none),other results
"ACAAGCUUUUAGAUUUUCAACAUGAGGAUCACCCAUGUUCGUCUUAUGCUAGUGCUAGUGCGGUGUACUGGUAUUAG [JL TOV1 3.80 sellena mod] (Eterna round: R97, puzzle: Sensor, turn-off variant 1)",16.9 nM,,16 nM,
"ACAAGCUUUUAGAUUUUCAACAUGAGGAUCACCCAUGUUCGUCUUAUGCUAGUGCUAGUGCGGUGUACUGGUAUUGG [JL TOV1 3.79 sellena mod] (Eterna round: R97, puzzle: Sensor, turn-off variant 1)",19.2 nM,,19.5 nM,
"ACAAGCUUUUUGCUCGUCUACAUGAGGAUCACCCAUGUAGUGUGUUAGUGGUGAAGAUAGAUUGAGCGUAGUAGGUA [JR_SV3TOV1_Sub072] (puzzle: Sensor v3, turn-off variant 1)",,,,apparent KD of MS2 coat protein [3]: 102 nM; apparent KD of MS2 coat protein [1]: 79.5 nM; apparent KD of MS2 coat protein [4]: 109 nM
"ACAAGCUUUUUGUUCGUCUUAUAAAAUCCUAAGAGGAAAACAUGAGGAUCACCCAUGUAACAAAGACGGACUCAUGU [Sesor Array 12 - Jieux - Sensor v3, turn-off variant 2] (Eterna round: R96, puzzle: Sensor v3, turn-off variant 2)",11.5 nM,99.1 nM,,
"ACAAGCUUUUUGUUCGUCUUAUAAAAUCCUAAGAGGAAAACAUGAGGAUCACCCAUGUAACAAAGACGGACUCAUGU [Sesor Array 12 - Jieux - Sensor v3, turn-off variant 2] (puzzle: Sensor v3, turn-off variant 2)",,,,apparent KD of MS2 coat protein [3]: 13.4 nM; apparent KD of MS2 coat protein [1]: 125 nM; apparent KD of MS2 coat protein [4]: 10.8 nM
"ACACAUGAGGAUCACCCAUGUCGGGUCAUAUCCUUCGAGGGCUAGGAUAUCGGGACUACGAAGCCCGAGAAGGAGCACUCGUUA [Ceorsobi] (Eterna round: R96, puzzle: Exclusion NG 3)",251 nM,66.3 nM,105 nM,
ACACUACAUGAGGAUCACCCAUGUCAGGAUAUCGAUAUCACAACUCAUCAACCUCACUCGAGAAGGGACACAUA [wifeneedsadrink] (puzzle: Exclusion 1),,,,apparent KD of MS2 coat protein [1]: 22.1 nM
"ACACUGCGAGGAUAUACAUGAGGAUCACCCAUGUGUCGGCAGGUACGGUAGCACUAGUGUAGAAGGCGCAUUAG [EX3 #40] (Eterna round: R97, puzzle: Exclusion 3)",17 nM,,15.4 nM,
ACAGCGUGAGGAUAUACAUGAGGAUCACCCAUGUAUGGCAGGUUAUCCUGUCGUAUGUGUAGAAGGCACGCUGU [Exclusion 3 - Oddities v.3 ( A small slide from ms2 to fmn)] (puzzle: Exclusion 3),,,,apparent KD of MS2 coat protein [1]: 50.8 nM
"ACAGUUCUGCAAGGAUAUCGUCCUAGUUUGUUUCGAGAAGGUGCUUUAGUUUAUUCCUUUUGUUUACAUGAGGAUCACCCAUGU [JR_ExcNG1_Sub050] (Eterna round: R96, puzzle: Exclusion NG 1)",,18 nM,,
"ACAUCACAGCUAGGAUAUAGAUGACAUGAGGAUCACCCAUGUUGUCCCAUGUUGACGAAAACCGACUAGAAGGAGCUACAGAUG [Ex NG2 #5] (Eterna round: R96, puzzle: Exclusion NG 2)",59.3 nM,52.6 nM,50.1 nM,
"ACAUCACAGCUAGGAUAUAUAUGACAUGAGGAUCACCCAUGUUGUCCCAUGUUGACGAAAACCGAAUAGAAGGAGCCACAGAUG [Ex NG2 #3] (Eterna round: R96, puzzle: Exclusion NG 2)",91.3 nM,61.5 nM,67.2 nM,
"ACAUGACUAGGAUAUACAUGAGGAUCACCCAUGUGACCACAAACAUGCUAUAUGGGCAGUAGAAGGAGUUGGAA [Eternabot (L1) Solution 86] (Eterna round: R97, puzzle: Exclusion 3)",82.9 nM,,75.9 nM,
"ACAUGAGGAUCACCCAUGUAAUCAUAAUGGCUGAUGUAGAGUCAGGAUAUGUGUGGCUUACUAUCGCAGAAGGGACAAGACUGG [Deportation 33 - Jieux - Exclusion NG 3] (Eterna round: R96, puzzle: Exclusion NG 3)",26.3 nM,14.2 nM,25.9 nM,
"ACAUGAGGAUCACCCAUGUAAUCAUGAUGGCUGAUGUAGACUCAGGAUAUGUGUGGCUUUCUAUCACAGAAGGGAGAAGACUGG [Deportation 37 - Jieux - Exclusion NG 3] (Eterna round: R96, puzzle: Exclusion NG 3)",59.7 nM,116 nM,129 nM,
